We go through two substances from patent US20200231652A1.

Where two headings read alike, the source gives them in different places.

The target in assay [1] is TGF-β1 (UniProt P01137). Description: cell-based or functional assay.
In another assay the target is TGF-β3 (UniProt P10600). Description: cell-based or functional assay.
The target of assay [2] is TGF-β1 (UniProt P01137).
Assay [3] has as its target TGF-β1 (UniProt P01137). The source holds these as a separate data set.

TGF-β1, sequence (P01137 279-390 limits assumed): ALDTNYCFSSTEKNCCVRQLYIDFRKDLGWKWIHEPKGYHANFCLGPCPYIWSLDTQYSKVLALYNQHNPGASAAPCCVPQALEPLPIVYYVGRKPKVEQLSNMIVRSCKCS
T22d35, sequence (P37173 other isoform, or with tags, fused parts or gaps limits assumed): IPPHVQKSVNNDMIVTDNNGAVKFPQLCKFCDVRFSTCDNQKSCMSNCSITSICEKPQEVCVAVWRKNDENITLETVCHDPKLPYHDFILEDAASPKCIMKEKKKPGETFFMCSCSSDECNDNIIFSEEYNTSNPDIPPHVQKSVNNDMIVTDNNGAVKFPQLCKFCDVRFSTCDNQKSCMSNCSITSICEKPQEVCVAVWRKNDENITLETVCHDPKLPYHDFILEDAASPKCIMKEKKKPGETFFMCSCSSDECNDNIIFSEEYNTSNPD
TGF-β3, sequence (P10600 301-412 limits assumed): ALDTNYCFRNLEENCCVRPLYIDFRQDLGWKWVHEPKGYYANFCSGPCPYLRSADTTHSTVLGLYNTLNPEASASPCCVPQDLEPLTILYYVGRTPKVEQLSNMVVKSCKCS

Turning to T2-hIgG1Fc fusion from R&D, the Av IC50, TGF-β neutralization, Mv1Lu cell luciferase reporter assay turned out to be 0.506 nM with TGF-β1 [1] and 0.323 nM with TGF-β3.

In the assay with TGF-β1 [1], “T22d35 (from UniProt P37173 24-222) (receptor)” had an Av IC50, TGF-β neutralization, Mv1Lu cell luciferase reporter assay of 1.23 nM; an IC50, A549 cell IL-11 release assay of 0.5 nM; an IC50, A549 cell IL-11 release assay (second set, FIG. 4C) of 0.5 nM. The substance further showed an Av IC50, TGF-β neutralization, Mv1Lu cell luciferase reporter assay with TGF-β3 of 0.033 nM. Besides, the IC50, A549 cell IL-11 release assay [table] with TGF-β1 [2] came out at 0.526 nM. In the assay with TGF-β1 [3], this substance came in with a Fold Change Fc-T2m, A549 cell IL-11 release assay [table] of 0.1 fold; a Fold Change T22d35, A549 cell IL-11 release assay [table] of 1 fold; an IC50, A549 cell IL-11 release assay [table] of 0.58 nM.
